Measurements from a protein production outcome set (Wang et al. 2014).

Assay: label from the status in PepcDB records

For “MSVTFSYLAETDYPVFTLGGSTADAARRLAASGCACAPVLDGERYLGMVHLSRLLEGRKGWPTVKEKLGEELLETVRSYRPGEQLFDNLISVAAAKCSVVPLADEDGRYEGVVSRKRILGFLAERIHSGEGGLTMEIEVPPTGAKLSEIIETIEKNDASILSFTSWTTGEGRIIFFRVATHDFFRLVRNMENYGYLIRYHSAFPNAGYDELREKALEFIHYMDM”, the protein production was “not failed”.
In the case of “MTPFENLSELPAQNTRFNGRAGMGTWLVNRLLNNIERGRLRVTLPGGGTIEKSGHQEGSEAILMLHNWRAIRRVLVNGDIGFAEGFIENDWSTPDLTALIRFAAQNQDAFARSTRGSLPMRLINRMAHALNANTRRGSRRNIEAHYDLGNEFYRQWLDPSMLYSSAIFDDTTPTLEAAQRKKLERIAEKLQLTGNNSVLEIGCGWGALAIHLATQQNADVTGITLSPSQLRWAENAAEKESKAGRIDLRLQDYRDVQGQFDNIVSVEMFEAVGESYWPSYFEMLKRCLKPGGRAVLQIISIDESRFDTYRRKADFIQKYVFPGGFLPSDSALEKSVGQAGLKLTETELFGQSYALTLAEWRQRFHARWQTISLLGFDERFRRLWDYYLCYCEAGFAEGTINVGLYTIEHG”, the protein production is reported as “failed”.
In the case of “MRKRNPRRATPEELRVCSVLKEKGTREELAHLAARGEWSNVPAYNASREQIADHLGKSVSPESDASFFDSRRFSEAIVLLKSRPVLLVKNGIFDEAPLAGLEQRLKKHRAALATPIRSVGRLELIDHDSMDWCGTGWRIEDDLIVTNRHVASLFAERQGSLFRFRLNQAGKQVRTRVDFREEYRQPESDEHVIARVLWIAPDVSEAPDMAILQVVKGDLLPPPLVLARQDAEPRQAVAVVGYPARDSRNDAGAMEDIFGNIYDVKRFAPGEVVGLPHDAWYLTHDCSTLGGNSGSAVLSIDGGEVVGLHFGGQFRKTNYAVKASVIRSLLARRAWVPVAGAELKRGVPRFQEKQRSVADLAERKGFDEAFLGPKAALPKPGKSHQVLPVGKGTRLDYLHFSVVMSASRRLPILTAVNIDGALKRSLKRKDSWGFDPRIEAAAQVGHKDFYGPASFDKGHMVRREDPGWGDSDAVARQAEDDTFVYTNAVPQVAQLNQRSWLSLEDYVLQNARSEGFRISVFTGPVFRDDDPLYQGVQVPLEFWKVVAMIDADSGELGVSAYLLGQEGMMPSEGFRYGAFKTYQVPLAKVEASADLRFSSALRKADVLAGTPLEEALESGRFIEIDGPDDLLLSRPGPAGKGPLRFRPAAATRVAVR”, the protein production is reported as “failed”.
With “MPLIPAVPGLADRRMYVFLLLLTLGSGMSFQGWNTLYTNFAVHGAGLSGAENGLVQSIREVPGLLTFGVIPLLLLLREHRLAALAVLVTGVGVMTAGLLPTLWGVVATTLVMSFGFHYFEAVNQSLILQYFDVRTAPLVMGRLRGLAAGGNLVMGALVYVLADLFAFSTLFCIMGAFATVAGAWALTRDPSDPARPAQRRSMVLRRRYWLFYLLTILAGARRQIFTVFSVFLLVEHFGYGVREVALLFIVNNAVNWFLNPLIGRAVNRFGEQHLLTVEYSVLVLVFLGYTVTDSPLVAAFLYVVDHIFFNFAIAIRTFFQKIADPADIAPSMAMSVAINHIAAVVMPVCGGMLWMLDYRIPFYVGAGLAVASLLATQRIGAELRLQGVKPC” the protein production was “failed”.
With “MSTRRSAFLRGLWAATPFSLVIAPFGLLFGVVGTEAGLDIVEVMGFSIIVIAGAAQFAAVQMMADHAPTLIILATSLAVNLRMAMYSASLTPHLGPAPAGLRALIAYCLVDQTYTASMIEFDRAPQQSLGEKIAFFFGTVLPVCPLWYGSTYVGARLGTKIPPEFALDFAVPITFLAMIAPLLRTPAHIAAAGVSVALSLVLAFMPYNSGLLVAAVAAMVTGAQVEAWTERRRAA” the protein production was “failed”.
In the case of “MILGEIMEVLAFKNQSLIDHVNDMVKYWERIKYRYLKTIKRALEALNIKLDIEKVDEFMKILIKLHDIGKASKIYQRAIINDQEKLMGFRHELVSAYYTYHILLKKFGDKNLAFIGALTVMLHHEPIIMGQIRNLKKKELTAEVVLDKLKKFDGMIEDFEDLIKKLIGYSIGDIIKNDSNKDDIIRFVIEMSVRARHTPNSEKLRFIVGTLLLPLVMCDYKGAESREGKAPKFAEVLEVESYVI”, the protein production is reported as “not failed”.
In the case of “MTRIASHRGGTLEFGDSTPHGFTATAAMALEEVEFDLHPTADGAIVVHHDPTLDATTDMTGAIVDMTLAKVKTATIRYGAGSHPMTLEELCALYVDSHVNFRCEIKPGVDGLPYEGFVALVIAGLERHSMLERTTFSSFLLASMDELWKATTRPRLWLVSPSVLQQLGPGAVIETAIAHSIHEIGVHIDTADAGLMAQVQAAGLDFGCWAAHTPSQITKALDLGVKVFTTDRPTLAIALRTEHRMEASV”, the protein production is reported as “not failed”.
For “MTAPEETAPVSVRKPSKPDLWKDSLGRTATRALQILLILTLTVVAVFGLLQIRLLVIPVLIALILAAAIGPFVNMLRRRGWRGGLATGVAFLGLLIVLGGVITVIVMSVRSQWDELISQAAAGLDELESFLLTGPFPIDREQLNQAREAVVEFAQSSQVRSGAVTGLSVVTEFLAGASLVVVILFFFLKDGAKIWEFFLRPFKGRREAKLRRVGKRTMEVLGGYVRGTAIVALVDTVAIGAALLIMQVPLAIPLAIIVFIGAFIPLVGATVAGILAALVALVANGPIVALIVIIVVIAVNQLEGDLLQPVVMGKSLELHALVILMALTAGTILAGIIGAVLAVPIAAVTWAIIQVWTAEDPDLEPMNPELPPANSQPT”, the protein production was “failed”.
With “MSDYLDMLASFGVSSAHPGGMSLSKAVLAKAGIDPEQPILDAGCGTGQTAAYLGQLLFPVTALDADPVMIDKARQRFKKEQLSIPAVRSPLEEMPFQSESFACVLTESVLSFTNIRSALQEIRRILKPGGMLVAIEVCLKEGNALTDEAKKEITEFYGFTALYDEDEWVNVLREEGFSKIDIIPVVLEDAGDPDDAVEMDLSPAISDKDYETMEKHLHYLEKYRDSLDHIIFISHL” the protein production was “failed”.
For “MYTNVHSANNYQANLSNRSYGFKELAVLYFPNIAPASASIRLKQWIKDDVELLGSLEETNYHLSNRILTPKQRDLITTTFGSPFLEHHHHHH”, the protein production was “failed”.
For “MRYWKNSRIKMFEQEDEWISKTQMKKQMNDLQDLGMALTKLSNDTLKKIGLDADLYEAVTAYKKITSNGALKRQAQFIGRLMRDTDPAPIEAFLAKLRGDDAAHNAFLQRVEQARVRLLADDGALTQFMSDFPHADAGKLRTLIRNTKKEQEQNKPPKNFRALFQELKTVMENGDAEI”, the protein production was “failed”.
With “MSAGKIDVHGFEKETLFFKNIASGSKGNCTLIWDSTDLIVIDLGITMKKFRDSIKSLDLAGRSISLFISHEHSDHIGGVPTTSKYVDMDVYMRPALSGSFRRKTYEMDGSLVVGNFEIRAFEIPHDAADPVGFSVLWHNRKISVVSDLGKVTDRVIESIRNSDILAFESNHDVEMLRTGSYPEALKRRILSDHGHLSNEQSAEAISRVATDDMRIILTHLSQENNRPEIALNEVKSYLENRNVRYRSIETADQYTGSSLYTLER” the protein production was “failed”.
For “MHVSKVFPSLRDTLPRDLMASVVVFLVALPLCMGIAIASGMPPAKGLLTGIVGGLVVGFLAGSPLQVSGPAAGLAVLVFELVRTYGVAMLGPILLLAGAIQLLAGRLRLGCWFRVTSPAVVYGMLAGIGILIVLSQLHVMLDLAPKASGLDNLLAFPQAAFAALGSLGMDSGLDAALLGLGTIAVMWGWDKLRPQRLRFLPGALLGVSLATLASLWLALDVRRVEVPANLGEAIVWLRPADLLALADPSLLLAAVVVAFIASAETLLSAAAVDRLHDGPRSDMDRELSAQGVGNMLCGLLGALPMTGVIVRSSANVNAGARTRASAIFHGLWLLAFVLLLGSLLRQIPVASLAGVLVYTGVKLVDFKALGNLSRYGRMPMLVYAATALAIVFTDLLTGVLVGFALTLLKLVLKAARLKIALRYTGEHEAELRLSGAATFLKVPALSRVLDEVKPGTTLHVPMDNLSYVDHACMELLEDWGRMAPVQGSRLVIEPRALKRRLEGRLRGSVGLGGARNGGAVSPG”, the protein production was “failed”.
For “MKSVIFTEEKNLQRQNPLQKSEQQRRNFEMPSPPTTTSLSVTQTINGSHSFTIKGYSLAKGIGIGKHIASDTFTVGGYQWAIYFYPDGKNPEDNSAYVSVFIALASDGTDVRALFELSLLDQSGKGKHKVHSHFDRALESGPYTLKYRGSMWGYKRFFRRLMLETSDFLKDDCLKINCTVGVVVSEIDCPRLHSIHVPASDIGSHFGMLLENEDGSDITFNVSGEKFRAHRLVLAARSPVFESEFLDVTGEEDRDIEVTDMEPKVFKALLHYIYKDALIEDAESSSSSGSSVGPSASDTLAAKLLGAADKYKLPRLSLMCESVLCKDISVDSVANILALADRYNASALKSVCLKFAAENLIAVMRSDGFDYLREHCPSLQSELLKTVAGCEEELSGGGGKTRSVWGQFSDGGAETNGRQAQTWGDINGGAERSQSVWVEVVNANGSGRNNNDNNNSDDPMAELED”, the protein production was “failed”.
With “MEIINLTYIPLGVYNYYKSNNQEVKMQTIDISELELLTESENPVIVDVREDFEYNSGHVPNAKNIPLSQLEERYAEITDGTYLICQSGARSARACQYLSTKGIDTINISGGTIAWNGP” the protein production was “failed”.
With “MEGNKSLVVAHAQRCVVLRFLKFPPNKKKTSEEILQHLQNIVDFGKNVMKDFLGENYVHCGEVVQLPLEFVKQLCLKIQCERPESRCDKDLDTFSGYAMCLPNLTRLQTFHFAEHRPILCVEIKPKCGFIPFSNDVTHEMKHKVCRYCMHQHLKVATGKWKKISKYCPLDLYSGNKQRMHFALRSLLQETQNNLRIFKNGELIYGCGDARSPVADLKELAHHLKPFFFPSNGLASGPHCTKAVIRELVHVITRVLLSSSEKARAGALRLGLQGPRVCEASPFSRSLHNQGKNTSEHSGLPKGCLLYKTLQVQMLDQLDIEGLYPLYKRVEQYLEEFPEERKTLQIDGPYDEVFYQKLLDLSTEDDGTVAFALTKVQQYRVAMTAKDCSIMIALSPCLEHHHHHH” the protein production was “failed”.
For “MIKLIHNANIVLEDMILENGHLIIEGDTIKKVSNDKIDYAFDFNEIDEIIDAKNLYVIPGIIDIHSDAIEKEIEPRPSTLLPFNMAFYELDKKLPANGITTVYHSISLGDGVGVRSIDNSLKMIKNIDSYKNIDSKSINHKVHLRYEVLYYEGLEKVLELLDENKIDYLSIMDHSPGQGQYTNPTFYKEYATKVWGVTENYVDTWLDDLVNLHDNLDWNKIANIIGIAKTKNINVASHDDDTLEKMDFIKNIGINVSEFPITLEVAKHSKKLGVLTCLGAPNIVRGKSHNNNLKAMDAILEDCCDIVCSDYLPSAMIKSMCIVAERINNLNKAVSLFTSNPAKAVGIYDERGSIKENKKADLVLVDIDSEYPKVVNTIVNGKTVYKREV”, the protein production was “failed”.
In the case of “MKRTKKAFVLVLSLSMLASISPQTVLASGGNTDRYEEVHGTQAIVKDAEVHVYTTKNGGTVQLTGSNGIETTFTQGIGYREYKATPADGWRWKGWTYEQLYQGEDLGNRTDYGWGRRYSFSNDGSDWKSPYDGIGQTISVNRLLTTGETVGNKITYNLYADFNPTINATADTGGTIEDSGITEVEYGTNKQYTVTADTGKDIASVTVDGNSVLAETKKDSFTYTFENVTEPHTIHATFTDEIHTVSYEFVSGTAGEALPEEVSNLCPSSSTYTYGTEVTPTQPTSTSVKVSDGVWTFKGYDKENQTVTSDVKFTGTWTFAKNAVTINHIPTITAGDKTITVGDSFDPKKDVTASDKEDGSLTDRIEVINNTVNTSKVGTYTVTYKVTDKDGASVTKSITVTVKEKDKEEQTTVPTKPDNGNSTSTDTKKDASKTGQTVKTGDTSNVLLWSTIAILSLAGVVTVLFIKRRKSHS”, the protein production is reported as “failed”.
With “MTLVEFPAITFAAVVCWAVGSLLQIPAKNSKVSGPLSWLFLFSGTLVLVWFLASYWIALDRPPLRTLGETRLWYATLIPVVGFLVEYRYKIGWLKYYCMGLATVFLGINYMHPDVFEKALMPALQSPWFVPHVVVYLVGYVLLAASAVSGWHNVFLNFRGKRSAKGESMAHYLALLGFVLLTFGLIFGALWAKEAWGHYWTWDPKETWAFISWLAYLGYLHLVACKTDPRKLQWYLGLAFFVLLVCWFGVNYLPSAQNSVHTYSGAS” the protein production was “failed”.
With “MASDTPGFYMDKLNKYRQMHGVAITYKELSTSGPPHDRRFTFQVLIDEKEFPEAKGRSKQEARNAAAKLAVDILDNENKVDCHT” the protein production was “not failed”.
